Results published in article PMC10397247.
Each block holds one binder with its values, some of them ahead of it.

Columns and labels:
[1] = target: T1, 4H3631-AA; test: two-hybrid library CCmax; details: mean of both orientations;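 also: natural log of median RNA to DNA barcode read ratio; higher means stronger binding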
T1 chain: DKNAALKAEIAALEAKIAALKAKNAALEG

[2] = target: T2, 4H3378-AA; test: two-hybrid library CCmax; details: mean of both orientations;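 also: natural log of median RNA to DNA barcode read ratio; higher means stronger binding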
T2 chain: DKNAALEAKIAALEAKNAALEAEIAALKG

[3] = target: T3, 4H3697-AA; test: two-hybrid library CCmax; details: mean of both orientations;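 also: natural log of median RNA to DNA barcode read ratio; higher means stronger binding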
T3 chain: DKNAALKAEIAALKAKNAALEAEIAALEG

[4] = target: T4, 4H3606-AA; test: two-hybrid library CCmax; details: mean of both orientations;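 also: natural log of median RNA to DNA barcode read ratio; higher means stronger binding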
T4 chain: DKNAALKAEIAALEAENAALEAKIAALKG

[5] = target: T5, 4H2611-AA; test: two-hybrid library CCmax; details: mean of both orientations;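 also: natural log of median RNA to DNA barcode read ratio; higher means stronger binding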
T5 chain: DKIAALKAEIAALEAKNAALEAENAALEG

[6] = target: T6, 4H2907-AA; test: two-hybrid library CCmax; details: mean of both orientations;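 also: natural log of median RNA to DNA barcode read ratio; higher means stronger binding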
T6 chain: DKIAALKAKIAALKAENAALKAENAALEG

[7] = target: T7, 4H3162-AA; test: two-hybrid library CCmax; details: mean of both orientations
T7 chain: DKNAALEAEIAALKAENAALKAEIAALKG

[8] = target: T8, 4H3056-AA; test: two-hybrid library CCmax; details: mean of both orientations
T8 chain: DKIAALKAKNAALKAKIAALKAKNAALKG

[9] = target: T9, 4H3588-AA; test: two-hybrid library CCmax; details: mean of both orientations
T9 chain: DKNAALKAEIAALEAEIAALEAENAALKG

[10] = target: T10, 4H3865-AA; test: two-hybrid library CCmax; details: mean of both orientations
T10 chain: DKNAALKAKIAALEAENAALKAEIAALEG

[11] = target: T11, 4H2620-AA; test: two-hybrid library CCmax; details: mean of both orientations
T11 chain: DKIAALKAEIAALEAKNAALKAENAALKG

[12] = target: T12, 4H2553-AA; test: two-hybrid library CCmax
T12 chain: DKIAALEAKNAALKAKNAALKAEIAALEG

[13] = target: T13, 4H3413-AA; test: two-hybrid library CCmax; details: mean of both orientations
T13 chain: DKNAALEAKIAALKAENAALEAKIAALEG

[14] = target: T14, 4H384-AA; test: two-hybrid library CCmax; details: mean of both orientations
T14 chain: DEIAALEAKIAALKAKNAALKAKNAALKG

[15] = target: T15, 4H340-AA; test: two-hybrid library CCmax; details: mean of both orientations
T15 chain: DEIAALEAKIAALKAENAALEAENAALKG

[16] = target: T16, 4H32-AA; test: two-hybrid library CCmax; details: mean of both orientations
T16 chain: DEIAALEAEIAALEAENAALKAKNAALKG

[17] = target: T17, 4H2648-AA; test: two-hybrid library CCmax; details: mean of both orientations
T17 chain: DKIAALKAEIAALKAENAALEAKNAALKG

[18] = target: T18, 4H3133-AA; test: two-hybrid library CCmax; details: mean of both orientations
T18 chain: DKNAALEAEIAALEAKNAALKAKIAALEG

[19] = target: T19, 4H982-AA; test: two-hybrid library CCmax; details: mean of both orientations
T19 chain: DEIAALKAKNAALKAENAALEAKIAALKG

[20] = target: T20, 4H3718-AA; test: two-hybrid library CCmax; details: mean of both orientations
T20 chain: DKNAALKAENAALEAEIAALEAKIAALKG

[21] = target: T21, 4H697-AA; test: two-hybrid library CCmax; details: mean of both orientations
T21 chain: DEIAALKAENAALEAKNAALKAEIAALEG

[22] = target: T22, 4H3605-AA; test: two-hybrid library CCmax; details: mean of both orientations
T22 chain: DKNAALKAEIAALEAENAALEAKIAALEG

[23] = target: T23, 4H481-AA; test: two-hybrid library CCmax; details: mean of both orientations
T23 chain: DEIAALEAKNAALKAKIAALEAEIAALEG

[24] = target: T24, 4H3664-AA; test: two-hybrid library CCmax; details: mean of both orientations
T24 chain: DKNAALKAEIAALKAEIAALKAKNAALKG

[25] = target: T25, 4H327-AA; test: two-hybrid library CCmax; details: mean of both orientations
T25 chain: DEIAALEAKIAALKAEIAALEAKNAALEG

[26] = target: T26, 4H662-AA; test: two-hybrid library CCmax; details: mean of both orientations
T26 chain: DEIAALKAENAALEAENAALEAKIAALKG

[27] = target: T27, 4H55-AA; test: two-hybrid library CCmax; details: mean of both orientations
T27 chain: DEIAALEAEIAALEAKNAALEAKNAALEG

[28] = target: T28, 4H369-AA; test: two-hybrid library CCmax; details: mean of both orientations
T28 chain: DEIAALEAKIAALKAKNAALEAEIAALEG

[29] = target: T29, 4H4033-AA; test: two-hybrid library CCmax; details: mean of both orientations
T29 chain: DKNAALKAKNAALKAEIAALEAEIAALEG

[30] = target: T30, 4H3625-AA; test: two-hybrid library CCmax; details: mean of both orientations
T30 chain: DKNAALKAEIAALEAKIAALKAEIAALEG

[31] = target: T31, 4H2935-AA; test: two-hybrid library CCmax
T31 chain: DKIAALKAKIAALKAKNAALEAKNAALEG

[32] = target: T32, 4H3922-AA; test: two-hybrid library CCmax; details: mean of both orientations
T32 chain: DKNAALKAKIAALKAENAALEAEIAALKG

[33] = target: T33, O8; test: two-hybrid library CCNG1
T33 chain: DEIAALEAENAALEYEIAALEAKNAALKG

[34] = target: T34, O6; test: two-hybrid library CCNG1
T34 chain: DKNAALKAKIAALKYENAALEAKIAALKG

[35] = target: T35, O9; test: two-hybrid library CCNG1
T35 chain: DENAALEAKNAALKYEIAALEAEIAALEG

[36] = target: T36, O7; test: two-hybrid library CCNG1
T36 chain: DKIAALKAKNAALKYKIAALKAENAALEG

interaction score [1]: -1.73
interaction score [2]: -1.98
interaction score [3]: -2.21
interaction score [4]: 1.86
interaction score [5]: -1.68
interaction score [6]: -1.73
interaction score [7]: -1.5
interaction score [8]: -1.68
interaction score [9]: -1.93
interaction score [10]: -1.79
interaction score [11]: -1.7
interaction score [12]: -1.66
interaction score [13]: -1.58
interaction score [14]: -1.95
interaction score [15]: -0.687
interaction score [16]: -0.574
interaction score [17]: -0.498
interaction score [18]: -2.05
interaction score [19]: 1.15
interaction score [20]: 1.12
interaction score [21]: -1
B1: 4H2553-AA (peptide)
chain: DKIAALEAKNAALKAKNAALKAEIAALEG

interaction score [22]: -0.818
interaction score [23]: -1.6
interaction score [24]: -1.44
interaction score [25]: -0.77
interaction score [26]: -1.34
interaction score [27]: 1.48
interaction score [28]: -1.13
interaction score [29]: -1.05
interaction score [30]: -1.65
interaction score [31]: -1.28
interaction score [32]: -1.89
B2: 4H2935-AA (peptide)
chain: DKIAALKAKIAALKAKNAALEAKNAALEG

interaction score [33]: -1.47
interaction score [34]: -2.52
interaction score [35]: -0.62
interaction score [36]: -2.14
B3: O6 (peptide)
chain: DKNAALKAKIAALKYENAALEAKIAALKG
